# From the DeepSol protein solubility set
# Test: soluble on expression in E. coli; label from the status in PepcDB or PDB records
row,Sequence,soluble on expression in E. coli
1,MSGQSLTDRITAAQHSVTGSAVSKTVCKATTHEIMGPKKKHLDYLIQCTNEMNVNIPQLADSLFERTTNSSWVVVFKSLITTHHLMVYGNERFIQYLASRNTLFNLSNFLDKSGLQGYDMSTFIRRYSRYLNEKAVSYRQVAFDFTKVKRGADGVMRTMNTEKLLKTVPIIQNQMDALLDFNVNSNELTNGVINAAFMLLFKDAIRLFAAYNEGIINLLEKYFDMKKNQCKEGLDIYKKFLTRMTRISEFLKVAEQVGIDRGDIPDLSQAPSSLLDALEQHLASLEGKK,soluble
2,MSGRKIAAATVQNRTQTPFWNWLKQKLLASDRLPITPPPGIAGPDGKAVYQNPLRFPNTQSARPCSAELPALPGGVHHKLADNYYLTRDGRRNVDAPKVLYSSGEFVGGEKAQPAQVNQGVATNFGLTAPTPGFGAEWSRSKQNELASQQKNTEFEYLQRFDKFTKSA,not soluble
3,MSGRLIGKVALVSGGARGMGASHVRAMVAEGAKVVFGDILDEEGKAVAAELADAARYVHLDVTQPAQWTAAVDTAVTAFGGLHVLVNNAGILNIGTIEDYALTEWQRILDVNLTGVFLGIRAVVKPMKEAGRGSIINISSIEGLAGTVACHGYTATKFAVRGLTKSTALELGPSGIRVNSIHPGLVKTPMTDWVPEDIFQTALGRAAEPVEVSNLVVYLASDESSYSTGAEFVVDGGTVAGLAHNDFGAVEVSSQPEWVT,not soluble
4,MSHLKDPTTQYYTGEYPKQKQPTPGIQAKMTPVPDCGEKTYVGSGRLKDRKALVTGGDSGIGRAAAIAYAREGADVAISYLPVEEEDAQDVKKIIEECGRKAVLLPGDLSDEKFARSLVHEAHKALGGLDIMALVAGKQVAIPDIADLTSEQFQKTFAINVFALFWLTQEAIPLLPKGASIITTSSIQAYQPSPHLLDYAATKAAILNYSRGLAKQVAEKGIRVNIVAPGPIWTALQISGGQTQDKIPQFGQQTPMKRAGQPAELAPVYVYLASQESSYVTAEVHGVCGGEHLG,soluble
5,MSHPALTQLRALRYFDAIPALEPHLLDWLLLEDSMTKRFEQQGKRVSVTLIREAFVGQSEVEEASGLLPSESRYWLREILLCADGEPWLAGRTVVPESTLCGPEQVLQHLGKTPLGRYLFTSSTLTRDFIEIGRDATLWGRRSRLRLSGKPLLLTELFLPASPLY,not soluble
6,MSHPVVIKENMTVYDAICTIFLEDVSTLFITNENNDFVGVCSRKDLLRASMIGEDIHTMPISVNMTRMPHVSYLKEQELVIYAANQMIDKEIDSLPIVRPKENDKFEVIGRISKTTITKLFVSLFKE,not soluble
7,MSHTSNFTRNFHCRSSSNKRSESEKSPSFSKKRRRARALDPDEFIPPVEGPDVQKIDSETSRKCHSIKGFNVNKDGSVRRLEDNSKYEHNKSSRQKRSEAAPLENSEGKSTKSRKLSSPSKKSNKKSISKKSDRSKVSKVKRSPKTDKELEKKPSSIYERKDVDGHDDLKVPNMRSRKHSENSKNLFDYFFWFSLQTSKMKSLNYIEMLSNGDIKAPISAVFCPTRGSSTAPNCFAIIGVWRRRKKRSVSKLIKIGFSIPQSMEILTKKGQLFPNLITRQIPMEIRAVNFAHLHFSHRLVDFASGDDVLCDRIQHTIHVQS,not soluble
8,MSHVQAVIFDAFGTITRIENARHPFRQLLKLGIAQGRRPKPDDASMLMRHPWGLAQAADHFGIDVTPAELARIQAELDAEVASIQPFADALACIEALQAHGLKVAVCSNLARPYGAAVKRIFPGLESYGFSYEIGTLKPDRRIYEAALTELAVDACKVWMIGDSQRCDRDGPIALGIKGHYLNRTGAGSPSDFRDLMAFKHSVFESRSP,not soluble
9,MSIAQEFEKANTHYSSNFTKRDLPLPPARKVAVVICMDARIDPAASLGLTEGDAHVIRNAGGRASDALRSVIISQRLLGTREIVVVHHTDCGMLTFSDNDLRGIVAKETGHNVDHFAFLPFGDLEKSVKDDVEFFKRNPLVLDVPVTGYIYDVKSGAINKVDS,soluble
10,MSIAVGMIETRGFPAVVEAADSMVKAARVTLVGYEKIGSGRVTVIVRGDVSGVQASVSAGIEAANRVNGGEVLSTHIIARPHENLEYVLPIRYTEEVEQFRTYGVPRGLEHHHHHH,soluble
11,MSICTRKFINKLGFPNFGGESVQIAISGGKGWNWKIYSRHKSCSKMGVKRTLADLDVEAPNDHLLLGVSLANEEPVYQFMPHFDYLKCIKRRKCAKVCEEHAIVTLKDGTPFLMPTLCSGCRACEIVCPVPGAIREMAGDPLEHHHHHH,not soluble
12,MSIEIANIKKSFGRTQVLNDISLDIPSGQMVALLGPSGSGKTTLLRIIAGLEHQTSGHIRFHGTDVSRLHARDRKVGFVFQHYALFRHMTVFDNIAFGLTVLPRRERPNAAAIKAKVTKLLEMVQLAHLADRYPAQLSGGQKQRVALARALAVEPQILLLDEPFGALDAQVRKELRRWLRQLHEELKFTSVFVTHDQEEATEVADRVVVMSQGNIEQADAPDQVWREPATRFVLEFMGEVNRLQGTIRGGQFHVGAHRWPLGYTPAYQGPVDLFLRPWEVDISRRTSLDSPLPVQVLEASPKGHYTQLVVQPLGWYNEPLTVVMHGDDAPQRGERLFVGLQHARLYNGDERIETRDEELALAQSA,soluble
13,MSIEIKTNSVEPIRHTYGHIARRFGDKPATRYQEASYDIEAKTNFHYRPQWDSEHTLNDPTRTAIRMEDWCAVSDPRQFYYGAYVGNRAKMQESAETSFGFCEKRNLLTRLSEETQKQLLRLLVPLRHVELGANMNNAKIAGDATATTVSQMHIYTGMDRLGIGQYLSRIALMIDGSTGAALDESKAYWMDDEMWQPMRKLVEDTLVVDDWFELTLVQNILIDGMMYPLVYDKMDQWFESQGAEDVSMLTEFMRDWYKESLRWTNAMMKAVAGESETNRELLQKWIDHWEPQAYEALKPLAEASVGIDGLNEARAELSARLKKFELQSRGVSA,soluble
14,MSIFNGIKEEQMDILREVGNIGAGHSASAMAQLLNRKIDMEVPFAKLLSFDELVDFFGGADVPVASIFLRMEGDLTGSMFFIMPFFQAEQFIRELIGNPDFDIEDLGEDHMSSSALHELGNILAGSYLTALADLTKLQLYPSVPEVSLDMFGAVISEGLMELSQVGEHAIVVDTSIFDQSHQQELKAHMFMLPDYDSFEKLFVALGASL,soluble
15,MSIKIKNAVEIEKMRVAGRLAAEVLEMIEPHVKAGVTTEELDQICHKYITEVQGAIPAPLNYHGFPKSICTSINHIVCHGIPASEDTYFGQIQRPAVLRDGDILNIDITVIKDGYHGDTSKMFLIGDVSIEDKRLCHVAQECLYLALKQVKPGVQLGEIGTTIEKHIKTNNKNNPRFKFSIVRDYCGHGIGAEFHEEPQVVHYKNSDRTVLREGMIFTIEPMINAGKFGCRLDDEDSWTVYTADGKKSAQWEHTILVTATGCEILTLRSEESLPRILNNA,not soluble
16,MSIKQWPEGERPREKLLERGAAALSDAELLAILLRVGTRGMSAVDLARYLLQEFGSLGRLMSAEVGKLSAYKGMGTASFTQFAVVREIGRRILAEELQESIVLSDPDTVADYLRFHLGQEKVEVSVALLLNRQNQLIAVRELSRGTVAENTIYIREIVKLALDEYADSLIIAHNHPGGSPEPSQEDIMFTRRLAQAMSLVDVSLLDHFIVTSQSVCSFRQLGLMP,not soluble
17,MSILDTEVTLINGEKASMDQWAGHCLLIVNTASECGYTPQLETLEELYEDYAMRGFFVIGVPCNQFGEEEPGKDAQVARRYEEKFGVRFPLLAKSDVNGPNTIELYKKLKGDGPDIEWNFEKFIVAPSGEVVGRFAPSLDPDDMKIINVLEEYLPI,soluble
18,MSILMPVRNEERFLPAALASLCRQSLTAWELIVVDDGSTDDTPELLRVAAARDRRVRVFNNAGAGLVDALNYGLAHCRAELVARMDGDDISHPQRLERQAAALDADPGLGLVATRFRHFPRHSVGLGMRAYEEWQNGLLTHEEIMRDRFVESPVVHPSVMARRQALTDAGGYRKTGWAEDYDLWLRLAAGGVRFTRLPEVLFFWRERPERATRTMGEYAADAFRACKIHHLCQGFLLGVDNVTLAGAGLEGRAWQRALAREGVRVGRWLDVDPRKQGRILHGAPVTAPDDVRAGAEKILVTVGTRGARDGVRAWARRAGLREGEDFVCVTLEHHHHHH,not soluble
19,MSIQKLLSKARKAIQDFDMIQENDKIAVGLSGGKDSLTLLHILKSYQRFSPQNFELIAITLNTGGVDNSPLDKLCKEINVPFYEFQTDIKEIVFDIRQEKNPCALCANLRRGALNDNAKKLGCNKVALGHHKDDAIETFLMSMFYEGRVNCFSPKTYLDRQDLTVIRPMVYIEEYMTKKISKDSNYPIITNPCPANGHTRREYIKNLIANLNKEMPDFKRNVFGALNNSEKLFIWDKEKIKNFK,not soluble
20,MSIQQIIEQKIQKEFQPHFLAIENESHLHHSNRGSESHFKCVIVSADFKNIRKVQRHQRIYQLLNEELNHSIHALALHLFTPEEWKAQNETVPHSTKCAGIGRLEHHHHHH,soluble
21,MSIRIDRQRCIGCGKCAEICPGNLIVIDEDKKAFVRDPRDCWGCAACVKECKFSAIRYFLGAEIGGNGTTMYVEKENDEIMYWYFEKPSGEKEMIVQNLKDNTTYLEHHHHHH,not soluble
22,MSISMDRWQGIQHVVVVGLGITGLSVVNYLRKYHPSVTVQVIDTREAPPGQEQLSSDVALHRSGWNLEWLLNADLVVTNPGIALATPEIQQVLAAGIPVVGDIELFAWHVDTPVIAITGSNGKSTVTDLSGVLANAAGVKAAVGGNIGVPALDLISPDVELYVLELSSFQLETTSSLKLKAAAFLNLSEDHMDRYQGMEDYRQAKLRIFDHAETAVVNADDTQTFPDHAAHLQVVTFGVEQAAQFSLAQHQGREYLFARDEAVMACAELSLVGRHNVANVLTVLALLDSAGVNFRLALDALKSYTGLTHRCQVVADNHGIKWVNDSKATNVASTLAALSGLKIEGQLYLLVGGVGKGADFTPLAPVLATLPVQLCCFGVDGHQFMPLHPSARFYDSMESIIRSIRPQLKSGDMVLLSPACASFDQFKNFMARGDIFAQLARQYA,not soluble
23,MSKEDNNAVVGHQPATKVGGRRIADHGNQRAQNSTNSSDAVREAMDFDLPAKMEKAYPTAAVKQVHEKPTPAIQPAHYNRATGNGQVRNIPQKQNH,not soluble
24,MSKEIAKKRIEELRDLLNTFNYQYHVLDNPSVSDAEYDRNMQELIKLEAENPEFMSEDSPSIRVGGTVLDIFEKVTHKSPMLSLGNAFNEGDLRDFDRRVRQGIDDANVRYICELKIDGLAVSLHYEKGRFIQGATRGDGVTGEDITQNLKTIKAIPLRLNEEVTLEARGEAYMPKRSFVKLNEEKEQNGEDVFANPRNAAAGSIRQLDPKIAAKRNLSMFVYGLANVEEKTIPSHSESLDYLGELGFKTNPNRRTCETIEEVIAYVEEWQEKRPHLDYEIDGIVIKVDDVALQESLGTTAKSPRWAIAYKFPAEEVVTRLTGIELSVGRTGVVTPTAELEPVRVAGTIVRRASLHNEDLIREKDIRIGDYVVVKKAGDIIPEVVNVIFDKRTGGEEEYHMPTHCPACESELVRLEEEVALRCINPTCPAQIREGLIHFVSRNAMNIDGLGERVITQLFDADYIRTFADLYSLTKEQLLQLERFGEKSATNLVQAIENSKENSLERLLFGLGIRHVGAKAARTFAEHFETMDALVKATEEELKAINEIGEKMAQSVVAYFDNEDVLELLQQFKEYGVNMTYKGIKIADLQNVESYFAGKTVVLTGKLEVMGRSEAKKKIEALGGKVTGSVSKSTDLVVAGEAAGSKLAQAEKHNVEVWNEERFLQELNK,soluble
25,MSKEPRIKILNGQTVQVRKEDHTIMNPLRWCIGKNFTGEKVELVGYTIPHPSDDISNITIQLCDESLQTPPNLLKKLVEGLECMEAIGAKIASEIERSKGGFNK,not soluble
